Measurements taken from patent publication US20200048612.

B1: HA-tagged full-length JMJD3 (protein)
chain: MHRAVDPPGARAAREAFALGGLSCAGAWSSCPPHPPPRSAWLPGGRCSASIGQPPLPAPLPPSHGSSSGHPSKPYYAPGAPTPRPLHGKLESLHGCVQALLREPAQPGLWEQLGQLYESEHDSEEATRCYHSALRYGGSFAELGPRIGRLQQAQLWNFHTGSCQHRAKVLPPLEQVWNLLHLEHKRNYGAKRGGPPVKRAAEPPVVQPVPPAALSGPSGEEGLSPGGKRRRGCNSEQTGLPPGLPLPPPPLPPPPPPPPPPPPPLPGLATSPPFQLTKPGLWSTLHGDAWGPERKGSAPPERQEQRHSLPHPYPYPAPAYTAHPPGHRLVPAAPPGPGPRPPGAESHGCLPATRPPGSDLRESRVQRSRMDSSVSPAATTACVPYAPSRPPGLPGTTTSSSSSSSSNTGLRGVEPNPGIPGADHYQTPALEVSHHGRLGPSAHSSRKPFLGAPAATPHLSLPPGPSSPPPPPCPRLLRPPPPPAWLKGPACRAAREDGEILEELFFGTEGPPRPAPPPLPHREGFLGPPASRFSVGTQDSHTPPTPPTPTTSSSNSNSGSHSSSPAGPVSFPPPPYLARSIDPLPRPPSPAQNPQDPPLVPLTLALPPAPPSSCHQNTSGSFRRPESPRPRVSFPKTPEVGPGPPPGPLSKAPQPVPPGVGELPARGPRLFDFPPTPLEDQFEEPAEFKILPDGLANIMKMLDESIRKEEEQQQHEAGVAPQPPLKEPFASLQSPFPTDTAPTTTAPAVAVTTTTTTTTTTTATQEEEKKPPPALPPPPPLAKFPPPSQPQPPPPPPPSPASLLKSLASVLEGQKYCYRGTGAAVSTRPGPLPTTQYSPGPPSGATALPPTSAAPSAQGSPQPSASSSSQFSTSGGPWARERRAGEEPVPGPMTPTQPPPPLSLPPARSESEVLEEISRACETLVERVGRSATDPADPVDTAEPADSGTERLLPPAQAKEEAGGVAAVSGSCKRRQKEHQKEHRRHRRACKDSVGRRPREGRAKAKAKVPKEKSRRVLGNLDLQSEEIQGREKSRPDLGGASKAKPPTAPAPPSAPAPSAQPTPPSASVPGKKAREEAPGPPGVSRADMLKLRSLSEGPPKELKIRLIKVESGDKETFIASEVEERRLRMADLTISHCAADVVRASRNAKVKGKFRESYLSPAQSVKPKINTEEKLPREKLNPPTPSIYLESKRDAFSPVLLQFCTDPRNPITVIRGLAGSLRLNLGLFSTKTLVEASGEHTVEVRTQVQQPSDENWDLTGTRQIWPCESSRSHTTIAKYAQYQASSFQESLQEEKESEDEESEEPDSTTGTPPSSAPDPKNHHIIKFGTNIDLSDAKRWKPQLQELLKLPAFMRVTSTGNMLSHVGHTILGMNTVQLYMKVPGSRTPGHQENNNFCSVNINIGPGDCEWFAVHEHYWETISAFCDRHGVDYLTGSWWPILDDLYASNIPVYRFVQRPGDLVWINAGTVHWVQATGWCNNIAWNVGPLTAYQYQLALERYEWNEVKNVKSIVPMIHVSWNVARTVKISDPDLFKMIKFCLLQSMKHCQVQRESLVRAGKKIAYQGRVKDEPAYYCNECDVEVFNILFVTSENGSRNTYLVHCEGCARRRSAGLQGVVVLEQYRTEELAQAYDAFTLVRARRARGQRRRALGQAAGTGFGSPAAPFPEPPPAFSPQAPASTSR
B2: HA-tagged JMJD3c (catalytic domain-containing C-terminus of JMJD3) (protein)
chain: QSEEIQGREKSRPDLGGASKAKPPTAPAPPSAPAPSAQPTPPSASVPGKKAREEAPGPPGVSRADMLKLRSLSEGPPKELKIRLIKVESGDKETFIASEVEERRLRMADLTISHCAADVVRASRNAKVKGKFRESYLSPAQSVKPKINTEEKLPREKLNPPTPSIYLESKRDAFSPVLLQFCTDPRNPITVIRGLAGSLRLNLGLFSTKTLVEASGEHTVEVRTQVQQPSDENWDLTGTRQIWPCESSRSHTTIAKYAQYQASSFQESLQEEKESEDEESEEPDSTTGTPPSSAPDPKNHHIIKFGTNIDLSDAKRWKPQLQELLKLPAFMRVTSTGNMLSHVGHTILGMNTVQLYMKVPGSRTPGHQENNNFCSVNINIGPGDCEWFAVHEHYWETISAFCDRHGVDYLTGSWWPILDDLYASNIPVYRFVQRPGDLVWINAGTVHWVQATGWCNNIAWNVGPLTAYQYQLALERYEWNEVKNVKSIVPMIHVSWNVARTVKISDPDLFKMIKFCLLQSMKHCQVQRESLVRAGKKIAYQGRVKDEPAYYCNECDVEVFNILFVTSENGSRNTYLVHCEGCARRRSAGLQGVVVLEQYRTEELAQAYDAFTLVRARRARGQRRRALGQAAGTGFGSPAAPFPEPPPAFSPQAPASTSR

Biological target: Histone H3 trimethylated at lysine 27 (H3K27me3), nucleosomal, in human ES cells

| Protein | H3K27me3 level by immunostaining and immunoblotting, 8 hours after introduction of synthetic mRNA into hESCs | H3K27me3 level after doxycycline-induced expression in JMJD3c-hESCs |
| --- | --- | --- |
| B1 | the introduction of the JMJD3c mRNA induced a more significant decrease in H3K27me3 as compared to the JMJD3f mRNA | – |
| B2 | the introduction of the JMJD3c mRNA induced a more significant decrease in H3K27me3 as compared to the JMJD3f mRNA | Dox treatment (1 µg/ml) induced HA-JMJD3c expression and a significant decrease in H3K27me3 in all hESCs |
